Assay [1] deals with T1, human Trop-2 (on the surface of human cell lines) (human, UniProt P09758 27-323).
T1 construct: Endogenous Trop-2 on NCI-H322, Capan-1, PC-3, HUVEC, OVCAR-3, HCC38 and HCC1806 cells; also called TACSTD2
T1 sequence: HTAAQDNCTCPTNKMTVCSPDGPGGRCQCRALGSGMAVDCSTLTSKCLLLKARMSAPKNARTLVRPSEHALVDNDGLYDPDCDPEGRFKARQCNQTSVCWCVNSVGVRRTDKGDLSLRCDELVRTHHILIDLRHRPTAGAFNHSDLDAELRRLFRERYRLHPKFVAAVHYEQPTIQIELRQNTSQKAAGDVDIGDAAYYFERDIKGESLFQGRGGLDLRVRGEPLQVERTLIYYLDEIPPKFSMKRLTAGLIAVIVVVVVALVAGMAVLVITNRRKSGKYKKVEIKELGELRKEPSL
Put plainly: flow cytometry, OVCAR-3 cells. Here is the method:
(§1) Tumor cells expressing Trop-2 were prepared into a cell suspension (0.5-1×10⁶ cells/mL) using the FACS buffer (Miltenyi Biotec, 130-091-221), and the cell suspension was added to a 96-well V-bottom plate at 100 μL/well. After centrifugation and removal of the supernatant, the test antibodies diluted with the FACS buffer to different concentrations (0.006 nM-100 nM) were each added at 50 μL/well. The mixture was incubated in the dark in a 4° C. refrigerator for 1 h. The plate was then washed 3 times with the FACS buffer by centrifugation at 300 g, and Alexa Fluor 488 goat anti-human IgG (H+L) (Bio-legend, 409304, 1:500 dilution) at working concentration was added. The mixture was incubated in the dark in a 4° C. refrigerator for 40 min. The plate was then washed 3 times with the FACS buffer by centrifugation at 300 g, the geometric mean fluorescence intensity (MFI) was measured on a Sartorius iQue3 flow cytometer, and the binding EC₅₀ values of the antibodies for tumor cells with different Trop-2 expression levels were calculated
In general terms: In flow cytometry, cells or beads pass a laser one at a time.

Assay [2] deals with T2, human Trop-2-His (human, UniProt P09758 27-274, limits assumed).
T2 construct: by analogy with the macaque construct it is probably the extracellular domain with a His tag; also called Trop-2-His protein
T2 sequence: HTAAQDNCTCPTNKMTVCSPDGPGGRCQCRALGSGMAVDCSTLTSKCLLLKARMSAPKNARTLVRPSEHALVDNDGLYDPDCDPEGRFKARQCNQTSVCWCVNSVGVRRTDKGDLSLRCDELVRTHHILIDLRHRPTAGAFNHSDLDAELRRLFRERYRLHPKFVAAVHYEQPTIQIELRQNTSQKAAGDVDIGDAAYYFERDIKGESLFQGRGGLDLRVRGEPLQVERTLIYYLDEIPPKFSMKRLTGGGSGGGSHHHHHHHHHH
Put plainly: ELISA, plate-coated human Trop-2-His. Here is the method:
(§2) After the liquid was discarded, 2% BSA (SIGMA, B2064-100G) diluted with PBS was added at 300 μL/well for blocking, and the mixture was incubated at 37° C. for 2 h. After the blocking was completed, the blocking buffer was discarded, the plate was washed 3 times with PBST buffer (pH 7.4 PBS containing 0.1% tween-20), the antibody solution diluted in a gradient was added at 100 μL/well, and the mixture was incubated at 37° C. for 1 h. After the incubation was completed, the plate was washed 3 times with PBST, the goat anti-human IgG (H+L) (JacksonImmunoResearch, 109-035-098, 1:5000 dilution) was added at 100 μL/well, and the mixture was incubated at 37° C. for 1 h. After the plate was washed 3 times with PBST, a TMB chromogenic substrate (TIANGEN, PA107-01) was added at 100 μL/well. The mixture was incubated at room temperature for 10-15 min, and then 1 M H₂SO₄ was added at 50 μL/well to terminate the reaction. The absorbance values at 450 nm were taken using a microplate reader. The binding curves of antibodies for antigen were fitted using software, and the EC₅₀ values were calculated.
Background: ELISA stands for enzyme-linked immunosorbent assay.

For assay [3], the target named is T1, human Trop-2 (on the surface of human …). The assay is described as follows: flow cytometry, HCC1806 cells. The procedure:
as §1

Another assay has as its target T3, Macaque Trop-2-His (macaque, UniProt P09758 27-274 (human entry)).
T3 construct: Extracellular domain of macaque Trop-2 recombinantly linked to His; also called monkey Trop-2-His protein; monkey Trop-2
T3 chain: T2 sequence with M36V, S67N, I204V
Put plainly: ELISA, plate-coated macaque Trop-2-His. The procedure:
as §2, with “times with the PBST buffer” for “times with PBST buffer”

Assay [4] has as its target T2, human Trop-2-His. The assay is described as follows: SPR (Biacore 8K), antibody captured, Trop-2-His as analyte. An excerpt:
The affinity of antibodies for human Trop-2-His was detected in the form of antibody capturing. The antibody was affinity-captured by a CM5 (Cat. #29149603, GE) biosensor chip conjugated with an anti-human IgG antibody (from human antibody capture kit, Cat. #29234600, GE), then the antigen human Trop-2-His flowed on the surface of the chip, and a Biacore 8K instrument was used for detecting reaction signals in real time to obtain association and dissociation curves. After dissociation was completed for each assay cycle, the chip was washed clean and regenerated with a regeneration buffer, 3M MgCl₂ (from human antibody capture kit, Cat. #29234600, GE). The association and dissociation curves were collected by Biacore 8K Control Software 3.0 in real time, and the data were analyzed by Biacore Insight Evaluation Software 3.0. The data were fitted using a Langmuir 1:1 model after double subtraction (namely, in each cycle, the contrast channel signal was subtracted from the experimental channel signal, and the sample signal was subtracted from the blank signal), and the association rate constant Ka, the dissociation rate constant Kd, and the equilibrium constant KD were calculated.
On the technique in general: Surface plasmon resonance follows binding to a sensor surface in real time, without labels.

The target of assay [5] is T1, human Trop-2 (on the surface of human …). Put plainly: flow cytometry, HCC38 cells. Here is the method: as §1
Assay [6] shares this target. Put plainly: cell-based or functional assay.
For assay [7] the target is unchanged. The assay is described as follows: cell-based or functional assay. The source holds these as a separate data set.

Numbering of substitutions follows the chain as printed.

B1: hz-Ab21-1.1 (antibody, human IgG1, kappa, V domains shown)
VH: EVQLVESGGGLVKPGGSLRLSCAASGFTLRNYGVHWVRQAPGKGLEWVGVIWSSGTTDYAAPVKGRFTISKDNSKNTLYLQMNSLKTEDTAVYYCTRDGDYDYYTMDYWGQGTLVTVSS
VL: EIVLTQSPATLSLSPGERATLSCRASKSVSTSAYSYIHWYQQKPGQAPRLLIYLTSNLESGIPARFSGSGSGTDFTLTISSLEPEDFAVYYCQHSRELPYTFGQGTKVEIKR
notes: Humanized antibody
For the molecule B1, the EC50 in assay [1] amounted to 0.62 nM; in the assay with human Trop-2-His [2], 0.162 nM; in assay [3] it was 0.64 nM; with Macaque Trop-2-His it was 0.098 nM; in assay [5] it was 0.55 nM. The molecule further had a Kd in the assay with human Trop-2-His [4] of 1.2 nM. For the same molecule, the koff with human Trop-2-His [4] turned out to be 0.000514 s⁻¹. Moreover, in the assay with human Trop-2-His [4], the kon is 429000 M⁻¹ s⁻¹.

B2: hz-Ab21-1.2 (antibody, human IgG1, kappa, V domains shown)
VH: B1 VH with A60N, P62A, V63F, K64I, G65S
VL: B1 VL
notes: Humanized antibody
As to B2, the EC50 in assay [1] was determined as 0.67 nM; with human Trop-2-His [2], 0.248 nM; in assay [3] it was 1.23 nM; with Macaque Trop-2-His it was 0.086 nM; in assay [5], 0.66 nM. Moreover, the Kd with human Trop-2-His [4] amounted to 0.973 nM. The molecule also displayed a koff with human Trop-2-His [4] of 0.000438 s⁻¹. Further, in the assay with human Trop-2-His [4], the kon was determined as 450000 M⁻¹ s⁻¹.

B3: hz-Ab21-2.1 (antibody, human IgG1, kappa, V domains shown)
VH: B1 VH
VL: B1 VL with A47P
notes: Humanized antibody
For B3, the midpoint of the response in assay [1], the EC50, lay at 0.68 nM. For the same molecule, the EC50 with human Trop-2-His [2] worked out at 0.214 nM. In assay [6], the “ADCC, PBMC killing (LDH), H322, EC50” value stood at 0.02 nM; the “ADCC, PBMC killing (LDH), H322, Maximum killing (%)” value (“ADCC … H322, Maximum killing (%)” for short) came out at 44.5%; the “ADCC, PBMC killing (LDH), HCC1806, EC50” value is 0.12 nM; the “ADCC, PBMC killing (LDH), HCC1806, Maximum killing (%)” value (shortened to “ADCC … HCC1806, Maximum killing (%)”) turned out to be 32.2%. For the same molecule, in assay [7], the “ADCC reporter (Jurkat-CD16a v158-NFAT-luciferase), target cell H322, EC50” value (shortened to “ADCC reporter … target cell H322, EC50”) was 0.21 nM and the “ADCC reporter (Jurkat-CD16a v158-NFAT-luciferase), target cell HCC1806, EC50” value (from here on “ADCC reporter … target cell HCC1806, EC50”) was found to be 0.39 nM. In assay [3], the EC50 came to 0.63 nM. Further, the midpoint of the response in the assay with Macaque Trop-2-His, the EC50, lay at 0.064 nM. Further, in the assay with human Trop-2-His [4], the Kd worked out at 1.38 nM, the koff amounted to 0.000559 s⁻¹ and the association rate constant (kon) was 404000 M⁻¹ s⁻¹. Moreover, the EC50 in assay [5] was 0.64 nM.

B4: ch-Ab21 (antibody, human IgG1, kappa, V domains shown)
VH: EVQLKQSGPGLVQPSQSLSITCTVSGFSLRNYGVHWVRQSPGKGLEWLGVIWSSGTTDYNAAFISRLSITKDNSKSQVFFKMNSLQVDDTAIYNCARDGDYDYYTMDYWGQGTSVTVSS
VL: AIVLTQSPASLAVSLGQRATISCRASKSVSTSAYSYIHWYQQKPGQPPKLLIYLTSNLESGVPARFSGSGSGTDFTLNIHPVEEEDAATYYCQHSRELPYTFGGGTKLEIKR
notes: Mouse VH/VL on human IgG1 and human kappa constant regions; also called chimeric antibody of Ab21
Consider B4, for which the EC50 turned out to be 1.02 nM in assay [1]; 0.165 nM with human Trop-2-His [2]; 0.65 nM in assay [3]; 0.093 nM with Macaque Trop-2-His; 0.64 nM in assay [5]. In addition, the “ADCC, PBMC killing (LDH), H322, EC50” value in assay [6] turned out to be 0.13 nM. For the same molecule, the “ADCC … H322, Maximum killing (%)” value in assay [6] turned out to be 54%. Besides, the “ADCC, PBMC killing (LDH), HCC1806, EC50” value in assay [6] came out at 0.03 nM. For the same molecule, the “ADCC … HCC1806, Maximum killing (%)” value in assay [6] was 40.3%. In addition, the “ADCC reporter … target cell H322, EC50” value in assay [7] was found to be 0.04 nM. In addition, in assay [7], the “ADCC reporter … target cell HCC1806, EC50” value came to 0.08 nM.

B5: ch-Ab35 (antibody, human IgG1, kappa, V domains shown)
VH: EVQLQQSGPDLVRPGASVKLSCKASGYTFTSSDINWVKQRPGQGLEWIGWIYPRDGSKKYNEKFKGKATLTVDTSSSTAYMEVHSLTSEDSAVYFCATRFATVVSNYGLDPWGQGTSVTVSS
VL: AIVLTQSPAIMSASPGEKVTMTCSASSSVNYIYWYQRKPGSSPRLLIYDTSNLASGVPVRFSGSGSGTSYSLTISRMEAEDAATYYCQQWNSYPLTFGAGTKLELKR
notes: Mouse VH/VL on human IgG1 and human kappa constant regions; also called chimeric antibody of Ab35
In assay [1], B5 displayed an EC50 of 0.37 nM. This molecule also yielded an EC50 in the assay with human Trop-2-His [2] of 0.043 nM. Moreover, in assay [6], the “ADCC, PBMC killing (LDH), H322, EC50” value worked out at 0.01 nM; the “ADCC … H322, Maximum killing (%)” value is 51.9%; the “ADCC, PBMC killing (LDH), HCC1806, EC50” value was 0.02 nM; the “ADCC … HCC1806, Maximum killing (%)” value was found to be 38%. For the same molecule, in assay [7], the “ADCC reporter … target cell H322, EC50” value was 0.02 nM and the “ADCC reporter … target cell HCC1806, EC50” value worked out at 0.04 nM. Also, a half-maximal effect in assay [3] (EC50) was put at 0.38 nM. This molecule also showed an EC50 in the assay with Macaque Trop-2-His of 0.048 nM. In addition, the EC50 in assay [5] stood at 0.45 nM.

The term EC50 denotes the concentration giving half of the maximal effect. A higher EC50 goes with weaker potency. By Kd is commonly meant the concentration at which binding is half-saturated. Read a high Kd as weaker binding. What is called koff is a measure of how fast the partners let go of each other. Lower therefore signals slow dissociation. By kon is commonly meant a measure of how fast the partners come together.

For the origin of these results see patent US20250034275A1 (CHIA TAI TIANQING PHARMACEUTICAL GROUP, published 2025).
